Data: PMC11363490, “Structural and biochemical characterization of cauliflower mosaic virus reverse transcriptase”

Legend:
[1] = target: CaMV RT RNase H mutant D421N (cauliflower mosaic virus)
CaMV RT = CaMV RT (Cauliflower mosaic virus, UniProt A0A2D2PYL0 197-675); experiment: gel filtration; 5 mM MgCl2; stable 1:1 complex; Gel filtration: 25 mM Hepes pH 7.5, 200 mM NaCl, 5% glycerol, 5 mM MgCl2, 1 mM DTT, 30 min on ice; crystals: protein in 20 mM Hepes pH 7.5, 200 mM NaCl, 5% glyc; details: protein: recombinant; tags: none (N-terminal 6xHis-SUMO removed with Ulp1); 5' overhang 2 nt on RNA strand (GG), 22 bp

Molecule: cauliflower mosaic virus (CaMV) reverse transcriptase, wild type (from UniProt P03554 1-679) (enzyme)
- RNase H cleavage efficiency on R40/D28, 1:1:1 mixture of wt RT:mutant RT:substrate, 120 min (against ∼18% for 1:1 wt enzyme:substrate) [1]: 60%

B1: RNA-24/DNA-22 hybrid (DNA:RNA)
RNA: GGCAGUGGUCCAGCAGUGCGUAGC
DNA: GCTACGCACTGCTGGACCACTG
- binding result (CaMV RT): binds
